Assay results from EP4682166A1 (Guangzhou Enmai Biotechnology Co., Ltd, dated 2026).

T1: human NMI (N-myc Interacting protein), recombinant protein (human, UniProt Q13287 1-307, limits assumed)
T1 construct: Gene ID: 9111; also called hNMI; antigen
T1 sequence (looked up): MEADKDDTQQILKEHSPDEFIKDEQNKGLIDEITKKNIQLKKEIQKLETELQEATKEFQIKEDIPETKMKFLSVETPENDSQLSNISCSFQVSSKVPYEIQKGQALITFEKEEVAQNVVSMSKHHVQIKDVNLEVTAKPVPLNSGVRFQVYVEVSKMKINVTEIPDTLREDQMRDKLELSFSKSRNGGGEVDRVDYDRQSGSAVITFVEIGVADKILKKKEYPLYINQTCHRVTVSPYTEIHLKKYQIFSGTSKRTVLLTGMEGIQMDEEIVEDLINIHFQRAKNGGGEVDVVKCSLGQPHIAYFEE

T2: NMI-flag overexpressed protein (293T cells transfected with the hNMI-flag plasmid) (human) (UniProt Q13287)
T2 sequence (looked up): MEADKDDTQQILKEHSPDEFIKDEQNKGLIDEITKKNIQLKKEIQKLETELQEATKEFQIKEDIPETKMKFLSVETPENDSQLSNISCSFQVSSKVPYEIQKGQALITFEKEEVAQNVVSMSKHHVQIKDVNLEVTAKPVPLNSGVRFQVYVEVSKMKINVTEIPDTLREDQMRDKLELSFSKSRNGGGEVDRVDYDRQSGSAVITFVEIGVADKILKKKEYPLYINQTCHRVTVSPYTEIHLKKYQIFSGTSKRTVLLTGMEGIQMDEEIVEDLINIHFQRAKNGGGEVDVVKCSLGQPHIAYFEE

T3: human NMI (N-myc Interacting protein) (human) (UniProt Q13287)
T3 sequence (looked up): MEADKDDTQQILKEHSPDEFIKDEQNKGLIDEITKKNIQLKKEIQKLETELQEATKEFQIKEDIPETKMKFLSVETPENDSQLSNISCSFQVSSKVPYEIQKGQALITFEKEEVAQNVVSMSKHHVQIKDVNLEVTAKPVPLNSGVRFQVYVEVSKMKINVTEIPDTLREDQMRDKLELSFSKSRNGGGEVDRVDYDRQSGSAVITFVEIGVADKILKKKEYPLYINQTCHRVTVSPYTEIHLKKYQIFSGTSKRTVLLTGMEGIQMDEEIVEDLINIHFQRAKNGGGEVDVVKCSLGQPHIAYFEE


How the values were obtained:
[1] = biological target: T1, human NMI (N-myc Interacting protein), …; assay: ELISA, binding to hNMI
[2] = biological target: T1, human NMI (N-myc Interacting protein), …; assay: sandwich ELISA; detection 39B4-1-biotin; hNMI 33.333 ng/mL
[3] = biological target: T1, human NMI (N-myc Interacting protein), …; assay: sandwich ELISA; detection 98G10-1-biotin; hNMI 1.235 ng/mL
[4] = biological target: T1, human NMI (N-myc Interacting protein), …; assay: sandwich ELISA; detection 98G10-1-biotin; hNMI 3.704 ng/mL
[5] = biological target: T1, human NMI (N-myc Interacting protein), …; assay: sandwich ELISA; detection 94C4-1-biotin 1µg/mL; hNMI 97.656 pg/mL
[6] = biological target: T1, human NMI (N-myc Interacting protein), …; assay: sandwich ELISA; detection 94C4-1-biotin 1µg/mL; hNMI 390.625 pg/mL
[7] = biological target: T1, human NMI (N-myc Interacting protein), …; assay: sandwich ELISA; detection 94C4-1-biotin 1µg/mL; hNMI 781.250 pg/mL
[8] = biological target: T1, human NMI (N-myc Interacting protein), …; assay: sandwich ELISA; detection 94C4-1-biotin 0.5µg/mL; hNMI 97.656 pg/mL
[9] = biological target: T1, human NMI (N-myc Interacting protein), …; assay: sandwich ELISA; detection 94C4-1-biotin 1µg/mL; hNMI 12,500.000 pg/mL
[10] = biological target: T1, human NMI (N-myc Interacting protein), …; assay: sandwich ELISA; detection 94C4-1-biotin 0.5µg/mL; hNMI 6,250.000 pg/mL
[11] = biological target: T1, human NMI (N-myc Interacting protein), …; assay: sandwich ELISA; detection 94C4-1-biotin 0.5µg/mL; hNMI 12,500.000 pg/mL
[12] = biological target: T2, NMI-flag overexpressed protein (293T cells transfected with the hNMI-flag plasmid) (human); assay: sandwich ELISA; detection 94C4-1-biotin; cell lysates of NMI-flag 293T, replicate 2
[13] = biological target: T2, NMI-flag overexpressed protein (293T cells transfected with the hNMI-flag plasmid) (human); assay: sandwich ELISA; detection 94C4-1-biotin; cell supernatant of NMI-flag 293T, replicate 2
[14] = biological target: T3, human NMI (N-myc Interacting protein) (human); assay: magnetic-bead chemiluminescent sandwich; capture 98G10 beads (1.0 mg 98G10), detection acridinium-B-8; hNMI 100 pg/ml
[15] = biological target: T3, human NMI (N-myc Interacting protein) (human); assay: magnetic-bead chemiluminescent sandwich; capture 98G10 beads (0.5 mg 98G10), detection acridinium-B-8; hNMI 1000 pg/ml
[16] = biological target: T3, human NMI (N-myc Interacting protein) (human); assay: magnetic-bead chemiluminescent sandwich; capture 98G10 beads (0.5 mg 98G10), detection acridinium-B-8; hNMI 2000 pg/ml
[17] = biological target: T3, human NMI (N-myc Interacting protein) (human); assay: magnetic-bead chemiluminescent sandwich; capture 98G10 beads, detection acridinium-B-8 (1.0 mg B-8 labelled); hNMI 50 pg/mL
[18] = biological target: T3, human NMI (N-myc Interacting protein) (human); assay: magnetic-bead chemiluminescent sandwich, kit of Example 8-1; capture 98G10 beads, detection acridinium-B-8; series 2, hNMI 50 pg/mL
[19] = biological target: T3, human NMI (N-myc Interacting protein) (human); assay: magnetic-bead chemiluminescent sandwich, kit of Example 8-1; capture 98G10 beads, detection acridinium-B-8; series 3, hNMI 50 pg/mL
[20] = biological target: T3, human NMI (N-myc Interacting protein) (human); assay: magnetic-bead chemiluminescent sandwich, kit of Example 8-1; capture 98G10 beads, detection acridinium-B-8; series 2, hNMI 900 pg/mL
[21] = biological target: T3, human NMI (N-myc Interacting protein) (human); assay: magnetic-bead chemiluminescent sandwich, kit of Example 8-1; capture 98G10 beads, detection acridinium-B-8; series 2, hNMI 3600 pg/mL
[22] = biological target: T3, human NMI (N-myc Interacting protein) (human); assay: magnetic-bead chemiluminescent sandwich, kit of Example 8-1; capture 98G10 beads, detection acridinium-B-8; series 2, hNMI 7500 pg/mL
[23] = biological target: T3, human NMI (N-myc Interacting protein) (human); assay: magnetic-bead chemiluminescent sandwich, kit of Example 8-1; capture 98G10 beads, detection acridinium-B-8; series 1, hNMI 14000 pg/mL
[24] = biological target: T3, human NMI (N-myc Interacting protein) (human); assay: magnetic-bead chemiluminescent sandwich, kit of Example 8-1; capture 98G10 beads, detection acridinium-B-8; series 1, hNMI 16000 pg/mL

Row | OD450 [2] [OD450] | OD450 [3] [OD450] | OD450 [4] [OD450] | OD450 [5] [OD450] | OD450 [6] [OD450] | OD450 [7] [OD450] | OD450 [8] [OD450] | OD450 [9] [OD450] | OD450 [10] [OD450] | OD450 [11] [OD450] | Binder | other results
1 | 2.43 | 0.307 | 0.607 | 0.15 | 0.206 | 0.288 | 0.113 | 2.03 | 1.29 | 2.03 | monoclonal antibody B-8 (antibody, V domains shown, Rabbit monoclonal antibody; also called B8-1) VH: QSLEESGGDLVKPGASLTLTCTASGFSFSSSYYMCWVRQAPGKGLEWIACIYAGSSGSTYYASWAKGRFTISKTSSTTVTLQMTSLTAADTATYFCAREYSYDDYGDFWGFNLWGPGTLVTVSS VL: ALVMTQTPSSVSAAVGGTVTINCQASQNIYTNLAWYQQKPGQPPKLLIYGASNLESGVPSRFKGSGSGTEYTLTISDLECDDAATYYCQSSLYSRIADRANAFGGGTEVVVK | EC50 [1]: 0.309 nM; OD450 [12]: 2.9 OD450; OD450 [13]: 0.95 OD450
2 | – | – | – | – | – | – | – | – | – | – | acridinium ester-labeled monoclonal antibody B-8 (antibody, V domains shown, acridinium ester label on the antibody, site not stated) VH: QSLEESGGDLVKPGASLTLTCTASGFSFSSSYYMCWVRQAPGKGLEWIACIYAGSSGSTYYASWAKGRFTISKTSSTTVTLQMTSLTAADTATYFCAREYSYDDYGDFWGFNLWGPGTLVTVSS VL: ALVMTQTPSSVSAAVGGTVTINCQASQNIYTNLAWYQQKPGQPPKLLIYGASNLESGVPSRFKGSGSGTEYTLTISDLECDDAATYYCQSSLYSRIADRANAFGGGTEVVVK | Signal value [14]: 20400; Signal value [15]: 97600; Signal value [16]: 204000; Signal value [17]: 4560; Signal value [18]: 6180; Signal value [19]: 6120; Signal value [20]: 98500; Signal value [21]: 408000; Signal value [22]: 900000; Signal value [23]: 1.05e+06; Signal value [24]: 1.21e+06
3 | 2.67 | 0.362 | 0.777 | 0.185 | 0.255 | 0.351 | 0.146 | 2.17 | 1.58 | 2.32 | monoclonal antibody 240B10-1 (antibody, V domains shown, Rabbit monoclonal antibody) VH: QSLEESGGRLVTPGGSLTLTCTVSGIDLSSYTMGWVRQAPGKGLEYIGIISGGGRTYYASWAKGRFTISKTSSTTVDLKVTSLTTEDTATYFCARIYTLWGQGTLVTVSS VL: QVLTQTLASVSAAVGGTVTINCQSSQSVYNNDYLAWFQQKSGQPPKQLIHSASKLASGVPSRFKGSGSGTQFTLTINDVQCDDAATYYCLGGYDCYSADCNVFGGGTEVVVK | –
